Reference: the MegaScale stability set (Tsuboyama et al. 2023)

B1: EEHEE_rd4_0363 (parent)
chain: VTVDIKGMEYHFDNPEEAKKFAERMAKELGGELKVENGTLKVE

Variants of: B1
Experiment: folding stability dG (cDNA display proteolysis); higher = more stable
Settings: PBS, room temperature

First: VTVDIKGMEYHFDNPEEAKSFAERMAKELGGELKVENGTLKVE [K20S]
Second: VTVDIKGMEYHFDNPEEAKEFAERMAKELGGELKVENGTLKVE [K20E]
The “folding stability dG” value of the first is lower: 1.95 kcal/mol for the first, 2.08 kcal/mol for the second.

Going from VTVDIKGMEYHFDNPEEAKQFAERMAKELGGELKVENGTLKVE [K20Q] to VTVDIKGMEYHFDNPEEAKPFAERMAKELGGELKVENGTLKVE [K20P], the “folding stability dG” value falls from 2.01 kcal/mol to -0.999 kcal/mol.

First: VTVDIKGMEYHFDNPEEAKHFAERMAKELGGELKVENGTLKVE [K20H]
Second: VTVDIKGMEYHFDNPEEAKIFAERMAKELGGELKVENGTLKVE [K20I]
The “folding stability dG” value of the first is lower: 1.53 kcal/mol for the first, 2.08 kcal/mol for the second.

Compared with VTVDIKGMEYHFDNPEEAKLFAERMAKELGGELKVENGTLKVE [K20L], VTVDIKGMEYHFDNPEEAKTFAERMAKELGGELKVENGTLKVE [K20T] is lower in “folding stability dG” value: 2.06 kcal/mol for the first, 1.67 kcal/mol for the second.

Going from VTVDIKGMEYHFDNPEEAKNFAERMAKELGGELKVENGTLKVE [K20N] to VTVDIKGMEYHFDNPEEAKVFAERMAKELGGELKVENGTLKVE [K20V], the “folding stability dG” value falls from 1.77 kcal/mol to 1.73 kcal/mol.

Compared with VTVDIKGMEYHFDNPEEAKWFAERMAKELGGELKVENGTLKVE [K20W], VTVDIKGMEYHFDNPEEAKFFAERMAKELGGELKVENGTLKVE [K20F] is lower in “folding stability dG” value: 1.67 kcal/mol for the first, 1.62 kcal/mol for the second.

Compared with VTVDIKGMEYHFDNPEEAKDFAERMAKELGGELKVENGTLKVE [K20D], VTVDIKGMEYHFDNPEEAKAFAERMAKELGGELKVENGTLKVE [K20A] is higher in “folding stability dG” value: 1.7 kcal/mol for the first, 2.42 kcal/mol for the second.

Going from VTVDIKGMEYHFDNPEEAKGFAERMAKELGGELKVENGTLKVE [K20G] to VTVDIKGMEYHFDNPEEAKMFAERMAKELGGELKVENGTLKVE [K20M], the “folding stability dG” value rises from 1.18 kcal/mol to 1.88 kcal/mol.

Compared with VTVDIKGMEYHFDNPEEAKRFAERMAKELGGELKVENGTLKVE [K20R], VTVDIKGMEYHFDNPEEAKCFAERMAKELGGELKVENGTLKVE [K20C] is higher in “folding stability dG” value: 2.18 kcal/mol for the first, 2.28 kcal/mol for the second.

Compared with VTVDIKGMEYHFDNPEEAKYFAERMAKELGGELKVENGTLKVE [K20Y], VTVDIKGMEYHFDNTEEAKKFAERMAKELGGELKVENGTLKVE [P15T] is lower in “folding stability dG” value: 1.57 kcal/mol for the first, 1.52 kcal/mol for the second.

First: VTVDIKGMEYHFDNCEEAKKFAERMAKELGGELKVENGTLKVE [P15C]
Second: VTVDIKGMEYHFDNEEEAKKFAERMAKELGGELKVENGTLKVE [P15E]
The “folding stability dG” value of the first is higher: 2.33 kcal/mol for the first, 2.12 kcal/mol for the second.

First: VTVDIKGMEYHFDNYEEAKKFAERMAKELGGELKVENGTLKVE [P15Y]
Second: VTVDIKGMEYHFDNFEEAKKFAERMAKELGGELKVENGTLKVE [P15F]
The “folding stability dG” value of the first is higher: 3.25 kcal/mol for the first, 3.22 kcal/mol for the second.

Going from VTVDIKGMEYHFDNLEEAKKFAERMAKELGGELKVENGTLKVE [P15L] to VTVDIKGMEYHFDNSEEAKKFAERMAKELGGELKVENGTLKVE [P15S], the “folding stability dG” value falls from 2.6 kcal/mol to 1.64 kcal/mol.

First: VTVDIKGMEYHFDNHEEAKKFAERMAKELGGELKVENGTLKVE [P15H]
Second: VTVDIKGMEYHFDNGEEAKKFAERMAKELGGELKVENGTLKVE [P15G]
The “folding stability dG” value of the first is higher: 2.05 kcal/mol for the first, 1.39 kcal/mol for the second.

First: VTVDIKGMEYHFDNIEEAKKFAERMAKELGGELKVENGTLKVE [P15I]
Second: VTVDIKGMEYHFDNNEEAKKFAERMAKELGGELKVENGTLKVE [P15N]
The “folding stability dG” value of the first is higher: 2.58 kcal/mol for the first, 1.41 kcal/mol for the second.

Compared with VTVDIKGMEYHFDNWEEAKKFAERMAKELGGELKVENGTLKVE [P15W], VTVDIKGMEYHFDNVEEAKKFAERMAKELGGELKVENGTLKVE [P15V] is lower in “folding stability dG” value: 3.73 kcal/mol for the first, 2.17 kcal/mol for the second.

Going from VTVDIKGMEYHFDNKEEAKKFAERMAKELGGELKVENGTLKVE [P15K] to VTVDIKGMEYHFDNDEEAKKFAERMAKELGGELKVENGTLKVE [P15D], the “folding stability dG” value rises from 1.45 kcal/mol to 1.58 kcal/mol.

Going from VTVDIKGMEYHFDNQEEAKKFAERMAKELGGELKVENGTLKVE [P15Q] to VTVDIKGMEYHFDNMEEAKKFAERMAKELGGELKVENGTLKVE [P15M], the “folding stability dG” value rises from 1.75 kcal/mol to 2.86 kcal/mol.

First: VTVDIKGMEYHFDNAEEAKKFAERMAKELGGELKVENGTLKVE [P15A]
Second: VTVDIKGMEYHFDNREEAKKFAERMAKELGGELKVENGTLKVE [P15R]
The “folding stability dG” value of the first is higher: 2.19 kcal/mol for the first, 1.45 kcal/mol for the second.

Compared with VTVDIKGMEYHFDWPEEAKKFAERMAKELGGELKVENGTLKVE [N14W], VTVDIKGMEYHFDYPEEAKKFAERMAKELGGELKVENGTLKVE [N14Y] is higher in “folding stability dG” value: 0.812 kcal/mol for the first, 0.952 kcal/mol for the second.

First: VTVDIKGMEYHFDNPEQAKKFAERMAKELGGELKVENGTLKVE [E17Q]
Second: VTVDIKGMEYHFDNPENAKKFAERMAKELGGELKVENGTLKVE [E17N]
The “folding stability dG” value of the first is higher: 1.5 kcal/mol for the first, 1.11 kcal/mol for the second.

Compared with VTVDIKGMEYHFDNPEKAKKFAERMAKELGGELKVENGTLKVE [E17K], VTVDIKGMEYHFDNPEPAKKFAERMAKELGGELKVENGTLKVE [E17P] is lower in “folding stability dG” value: 1.16 kcal/mol for the first, -0.343 kcal/mol for the second.

First: VTVDIKGMEYHFDNPEFAKKFAERMAKELGGELKVENGTLKVE [E17F]
Second: VTVDIKGMEYHFDNPETAKKFAERMAKELGGELKVENGTLKVE [E17T]
The “folding stability dG” value of the first is lower: 0.922 kcal/mol for the first, 1.23 kcal/mol for the second.

Going from VTVDIKGMEYHFDNPEAAKKFAERMAKELGGELKVENGTLKVE [E17A] to VTVDIKGMEYHFDNPEIAKKFAERMAKELGGELKVENGTLKVE [E17I], the “folding stability dG” value falls from 1.7 kcal/mol to 1.16 kcal/mol.

Going from VTVDIKGMEYHFDNPEGAKKFAERMAKELGGELKVENGTLKVE [E17G] to VTVDIKGMEYHFDNPEMAKKFAERMAKELGGELKVENGTLKVE [E17M], the “folding stability dG” value rises from 0.569 kcal/mol to 1.39 kcal/mol.

First: VTVDIKGMEYHFDNPESAKKFAERMAKELGGELKVENGTLKVE [E17S]
Second: VTVDIKGMEYHFDNPERAKKFAERMAKELGGELKVENGTLKVE [E17R]
The “folding stability dG” value of the first is higher: 1.38 kcal/mol for the first, 0.908 kcal/mol for the second.

First: VTVDIKGMEYHFDNPELAKKFAERMAKELGGELKVENGTLKVE [E17L]
Second: VTVDIKGMEYHFDNPEYAKKFAERMAKELGGELKVENGTLKVE [E17Y]
The “folding stability dG” value of the first is higher: 1.31 kcal/mol for the first, 0.905 kcal/mol for the second.

Compared with VTVDIKGMEYHFDNPEVAKKFAERMAKELGGELKVENGTLKVE [E17V], VTVDIKGMEYHFDNPEDAKKFAERMAKELGGELKVENGTLKVE [E17D] is higher in “folding stability dG” value: 1.17 kcal/mol for the first, 2.08 kcal/mol for the second.

First: VTVDIKGMEYHFDNPEWAKKFAERMAKELGGELKVENGTLKVE [E17W]
Second: VTVDIKGMEYHFDNPECAKKFAERMAKELGGELKVENGTLKVE [E17C]
The “folding stability dG” value of the first is lower: 0.794 kcal/mol for the first, 2.09 kcal/mol for the second.

For VTVDIKGMEYHFDNPEHAKKFAERMAKELGGELKVENGTLKVE [E17H], the “folding stability dG” value was 1.2 kcal/mol.
